{"source": "paper PMC8967866", "biological_target": "Cyanophora paradoxa photosystem I monomer2 (PSI-monomer unit lacking PsaK) (Cyanophora paradoxa (endogenous, strain NIES-547)) (UniProt P48112)", "sequence (P48112 whole entry, looked up)": "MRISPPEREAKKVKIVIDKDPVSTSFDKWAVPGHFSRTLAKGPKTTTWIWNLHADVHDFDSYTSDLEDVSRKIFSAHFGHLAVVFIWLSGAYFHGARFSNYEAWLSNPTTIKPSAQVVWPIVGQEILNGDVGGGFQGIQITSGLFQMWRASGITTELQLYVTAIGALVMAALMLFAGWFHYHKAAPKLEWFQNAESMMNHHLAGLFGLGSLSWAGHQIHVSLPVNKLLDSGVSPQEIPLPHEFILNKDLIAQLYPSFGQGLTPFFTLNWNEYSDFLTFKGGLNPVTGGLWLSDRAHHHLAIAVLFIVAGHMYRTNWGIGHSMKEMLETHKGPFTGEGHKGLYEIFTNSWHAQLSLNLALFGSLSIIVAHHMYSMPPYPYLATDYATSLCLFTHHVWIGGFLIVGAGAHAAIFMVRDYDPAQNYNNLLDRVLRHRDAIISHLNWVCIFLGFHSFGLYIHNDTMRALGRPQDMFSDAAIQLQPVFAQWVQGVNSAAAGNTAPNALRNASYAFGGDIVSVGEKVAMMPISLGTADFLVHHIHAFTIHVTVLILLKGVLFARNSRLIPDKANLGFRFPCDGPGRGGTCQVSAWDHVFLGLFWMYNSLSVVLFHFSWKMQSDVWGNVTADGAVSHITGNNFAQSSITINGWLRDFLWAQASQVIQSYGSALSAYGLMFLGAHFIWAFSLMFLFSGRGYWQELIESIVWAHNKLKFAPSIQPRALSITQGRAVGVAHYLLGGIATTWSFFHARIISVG", "experiment": "cryo-EM structure; PSI tetramer purified from Cyanophora thylakoids; GraFix (glutaraldehyde cross-linked) tetramer at 3.8 Å with C2 symmetry; unfixed wild-type tetramer at 4.0 Å; focused maps of monomer1 and monomer2 at 3.3 Å and 3.2 Å; 0.03% β-DDM, 50 mM Mes-NaOH pH 6.5", "data": [{"substance": "Cyanophora paradoxa photosystem I monomer1 (PSI-monomer unit with PsaK) (from UniProt P48112 1-752; P31173 1-81; Q9T4W8 54-220; P48114 1-70; P48115 26-186; P48116 1-35; P48117 1-40; P48185 1-31) (complex)", "values": [{"measurement": "stoichiometry N (PSI-monomer units)", "result": 4}]}]}
